Results on 4 molecules are retold here after PMC2879712 (Journal of cellular biochemistry, 2010).

Where two headings read alike, the source gives them in different places.

As usually defined, the Kd is the equilibrium constant for the complex coming apart.

The target of assay [1] is RAGE (Bos taurus) (UniProt Q28173). The note with it: cited from earlier work.
Assay [2] shares this target. The conditions noted are these: cited from earlier work. The source holds these as a separate data set.
For assay [3], the target named is sRAGE-Fc sRAGE (Homo sapiens) (UniProt Q15109). The note with it: cited from earlier work.
Assay [4] concerns the target RAGE V-domain (Mus musculus) (UniProt Q62151). The note with it: cited from earlier work.
The target in assay [5] is RAGE C1 domain (Homo sapiens) (UniProt Q15109). The note with it: cited from earlier work.
For a further assay, the target named is T1, total bovine lung RAGE (bovine, UniProt Q28173 23-416, N-glycans (native glycosylation)).
T1 sequence (looked up): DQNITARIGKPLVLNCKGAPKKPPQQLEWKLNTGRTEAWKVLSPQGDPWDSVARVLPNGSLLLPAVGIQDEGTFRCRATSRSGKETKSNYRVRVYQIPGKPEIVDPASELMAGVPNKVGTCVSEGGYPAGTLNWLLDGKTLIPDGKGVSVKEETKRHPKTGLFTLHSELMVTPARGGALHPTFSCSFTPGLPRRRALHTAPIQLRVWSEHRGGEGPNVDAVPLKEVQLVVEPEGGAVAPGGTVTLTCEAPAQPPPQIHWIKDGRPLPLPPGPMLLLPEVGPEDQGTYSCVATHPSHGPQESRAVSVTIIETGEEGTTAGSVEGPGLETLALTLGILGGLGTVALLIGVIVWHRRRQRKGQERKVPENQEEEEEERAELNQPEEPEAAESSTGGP
Briefly: ELISA.

Assay [6] deals with T2, mAbGB3.1-enriched bovine RAGE (bovine, UniProt Q28173 23-416, N-glycans enriched for carboxylated glycans).
T2 sequence (looked up): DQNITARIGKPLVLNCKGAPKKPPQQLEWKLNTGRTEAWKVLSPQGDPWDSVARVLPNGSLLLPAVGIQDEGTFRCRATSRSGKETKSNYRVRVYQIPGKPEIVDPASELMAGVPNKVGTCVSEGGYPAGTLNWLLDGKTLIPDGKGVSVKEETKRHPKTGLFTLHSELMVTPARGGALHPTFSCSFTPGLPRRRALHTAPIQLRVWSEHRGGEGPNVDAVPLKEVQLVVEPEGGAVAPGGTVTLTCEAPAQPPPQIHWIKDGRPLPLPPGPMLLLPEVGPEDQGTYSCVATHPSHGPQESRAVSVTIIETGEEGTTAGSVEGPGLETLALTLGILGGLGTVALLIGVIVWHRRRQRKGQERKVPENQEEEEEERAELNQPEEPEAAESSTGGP
Briefly: ELISA.

In assay [7] the target is His-tagged human sRAGE expressed in HeLa cells (human, UniProt Q15109 23-342, N-glycans at N25 and N81). In words: ELISA.
Assay [8] deals with His-tagged human sRAGE expressed in U373 cells (human, UniProt Q15109 23-342, N-glycans). Briefly: ELISA. A general note: In an ELISA, binding on a coated surface is turned into a signal by an enzyme label.
The target of assay [9] is His-tagged human sRAGE expressed in HEK293 cells (human, UniProt Q15109 23-342, N-glycans). In words: ELISA.
Assay [10] deals with His-tagged human sRAGE expressed in H4 cells (human, UniProt Q15109 23-342, N-glycans). In words: ELISA.
Assay [11] addresses His-tagged human sRAGE expressed in HL60 cells (human, UniProt Q15109 23-342, N-glycans). Briefly: ELISA.

Sequence of RAGE V-domain (Mus musculus) (Q62151 23-109): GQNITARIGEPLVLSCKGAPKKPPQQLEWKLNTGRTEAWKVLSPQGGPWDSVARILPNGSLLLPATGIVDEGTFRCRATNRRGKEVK
Sequence of His-tagged human sRAGE expressed in HeLa cells (Q15109 23-342): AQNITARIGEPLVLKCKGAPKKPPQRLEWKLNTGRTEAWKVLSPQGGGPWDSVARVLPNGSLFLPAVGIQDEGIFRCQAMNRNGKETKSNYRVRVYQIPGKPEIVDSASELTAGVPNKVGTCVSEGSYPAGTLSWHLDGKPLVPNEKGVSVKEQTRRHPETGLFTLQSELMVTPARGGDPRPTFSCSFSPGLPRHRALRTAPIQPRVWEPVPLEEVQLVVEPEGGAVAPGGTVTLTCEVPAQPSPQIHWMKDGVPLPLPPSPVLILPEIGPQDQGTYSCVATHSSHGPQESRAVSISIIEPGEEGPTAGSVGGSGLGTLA
Sequence of His-tagged human sRAGE expressed in H4 cells (Q15109 23-342): as above
Sequence of His-tagged human sRAGE expressed in U373 cells (Q15109 23-342): as above
Sequence of sRAGE-Fc sRAGE (Homo sapiens) (Q15109 23-342): as above
Sequence of His-tagged human sRAGE expressed in HL60 cells (Q15109 23-342): as above
Sequence of His-tagged human sRAGE expressed in HEK293 cells (Q15109 23-342): as above
Sequence of RAGE C1 domain (Homo sapiens) (Q15109 124-221): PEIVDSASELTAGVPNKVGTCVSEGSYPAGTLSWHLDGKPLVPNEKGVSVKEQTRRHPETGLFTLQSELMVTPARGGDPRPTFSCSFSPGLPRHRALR

On to S100A8/A9 (from UniProt P05109), for which the Kd with RAGE (Bos taurus) [1] was 7.62 nM; with RAGE (Bos taurus) [2], 34.4 nM.

Consider S100A12 (from UniProt P80511), for which the Kd in assay [3] was 80 nM; in [4], 90 nM; in assay [5] it was 90 nM.

B1: purified human S100A11 (ligand, UniProt P31949 1-105, looked up)
chain: MAKISSPTETERCIESLIAVFQKYAGKDGYNYTLSKTEFLSFMNTELAAFTKNQKDPGVLDRMMKKLDTNSDGQLDFSEFLNLIGGLAMACHDSFLKAVPSQKRT
Consider B1, for which the figures for the Kd (in the assay with total bovine lung RAGE; in assay [6]) were 53.1 ± 7.8 nM and 30.9 ± 3.6 nM, respectively.

B2: recombinant human S100A12 (ligand, UniProt P80511 1-92, looked up)
chain: MTKLEEHLEGIVNIFHQYSVRKGHFDTLSKGELKQLLTKELANTIKNIKDKAVIDEIFQGLDANQDEQVDFQEFISLVAIALKAAHYHTHKE
In the case of B2, the Kd in the assay with total bovine lung RAGE worked out at 51.8 ± 20.6 nM; in [6], 133 ± 46.4 nM. The binding result in assay [7], in assay [8], in assay [9], in assay [10] and in assay [11] was “binds” each time.
